In assay [1] the target is unknown target molecule expressed on the plasma membranes of human HCC cells. The assay can be described thus: flow cytometry on HCC cell lines Changliver and J5 (range over the two lines). Also on record: concentration or dose not given beside the values.
Assay [2] shares this target.
The target is the same in assay [3]. The assay can be described thus: flow cytometry on HCC cell line HA22T. Also on record: concentration or dose not given beside the values. (A flow cytometer gives signals particle by particle.)
For assay [4] the target is unchanged. The assay is described as follows: flow cytometry on HCC cell lines Mahlavu, 59T, Hep3B, HepG2, NTUBL and SKHepl (range over the six lines). Also on record: concentration or dose not given beside the values.
Assay [5] shares this target. The assay is described as follows: in vivo competition, 100 ug SP94 co-injected with 2x10^9 pfu PC94 (competitor of PC94), Mahlavu xenograft; phage recovered from tumor.

On to SFSIIHTPILPL (peptide, not shown: large carriers) [phage clone 94 (PC94)], for which the percent reactive cells (FACS) was 25.7 to 31.9% in assay [1], 19.1% in assay [3] and 47 to 81.2% in assay [4]. The same molecule registered a fold binding activity over control phage in assay [2] of 8 fold.
On to SFSIIHTPILPL [SP94 synthetic peptide (…)], for which, in assay [5], the percent inhibition of PC94 binding to tumor tissue was determined as 88%.
